The text below walks through data of paper PMC9798831.

Series [1] concerns the target ShTnsC (Scytonema hofmanni).
In series [2] the target is T1, ShTniQ;ShTnsC (Scytonema hofmanni;Scytonema hofmanni, UniProt A0ABR8GRC6;A0ABR8GR16 1-167;1-276, |).
T1 sequence 1: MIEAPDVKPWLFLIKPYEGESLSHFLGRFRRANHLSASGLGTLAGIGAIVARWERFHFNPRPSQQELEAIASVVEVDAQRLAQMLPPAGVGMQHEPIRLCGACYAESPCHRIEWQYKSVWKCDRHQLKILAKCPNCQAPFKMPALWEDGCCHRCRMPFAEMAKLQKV
T1 sequence 2: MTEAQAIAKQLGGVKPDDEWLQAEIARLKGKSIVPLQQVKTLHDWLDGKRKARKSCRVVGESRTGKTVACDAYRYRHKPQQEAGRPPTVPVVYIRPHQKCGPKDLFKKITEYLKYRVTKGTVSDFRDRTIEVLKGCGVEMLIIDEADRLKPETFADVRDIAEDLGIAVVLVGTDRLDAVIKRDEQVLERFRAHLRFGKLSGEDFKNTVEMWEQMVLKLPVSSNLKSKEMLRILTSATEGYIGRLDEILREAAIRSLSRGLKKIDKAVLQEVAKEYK
The series is described as follows: cryo-EM.

Where only a bound is given, the exact number is not on record here.

With “TniQ with alanine substitution of Trp10 (natural protein)”, the site-specific transposition activity of ShCAST in E. coli (ddPCR) in series [1] was more than 90 % reduction.

Turning to “TniQ with glutamate substitution of Arg155 (natural protein)”, the site-specific transposition activity of ShCAST in E. coli (ddPCR) in series [1] came out at 50 % reduction.

B1: Target_69 duplex (oIQ088/oIQ089) (dsDNA)
DNA 1: GCGAAGGCTTAATCATCGTGGATGAAGCCGACCACCTCGATTACCCCACGCTTGAAGAACTGCGGATCC
DNA 2: GGATCCGCAGTTCTTCAAGCGTGGGGTAATCGAGGTGGTCGGCTTCATCCACGATGATTAAGCCTTCGC
B1: the binding result in series [2] was “binds”.
